Laboratory results from patent publication US20240059799A1 (Pfizer, published 2024).

Columns and labels:
recombinant human TL1A [1] = biological target: T1, recombinant human TL1A (human, UniProt O95150 71-251); assay: cell-based or functional assay
T1 chain: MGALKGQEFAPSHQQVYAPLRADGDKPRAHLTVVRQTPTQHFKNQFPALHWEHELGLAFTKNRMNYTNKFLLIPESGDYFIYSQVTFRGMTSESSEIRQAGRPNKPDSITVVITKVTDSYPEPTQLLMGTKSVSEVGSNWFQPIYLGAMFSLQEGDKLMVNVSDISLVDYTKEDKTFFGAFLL

recombinant human TL1A [2] = biological target: T1, recombinant human TL1A; assay: competition ELISA, coated TL1A, competitor bio-TL1A-0002
Experimental: For this competition ELISA assay procedure, 96-well high binding plates (Corning, product number 3590) were coated with 1 μg/mL recombinant TL1A in 100 μL/well in Phospate Buffered Saline (PBS) overnight at 4° C. Plates were then blocked in PBS+0.02% casein solution and washed with PBS+0.05% Tween-20 following standard ELISA protocol. […] Plates were washed with PBS+0.05% Tween-20 following standard ELISA protocol, and Streptavidin-HRP (Southern Biotech, product number 7100-05) diluted to 1:10,000 in assay buffer was added to plates and incubated for 25-30 minutes at room temperature. Next, the plates were washed with PBS+0.05% Tween-20 following standard ELISA protocol, and then TMB substrate (BioFX Laboratories, catalog number TMBW-0100-01) was added to plates. Reactions were stopped after approximately 5 minutes by adding 0.18 M ortho-phosphoric acid to each well and absorbance was read at 450 nm.

B1: TL1A-0261 (antibody, human IgG1, kappa, V domains shown)
VH: QVQLVQSGAEVKKPGASVKVSCKASGYDYTYYGISWVRQAPGQGLEWMGWISTYNTGTHYAPSLQGRVTMTTDTSTSTAYMELRSLRSDDTAVYYCARESYYGSGAHRGGMDVWGQGTTVTVSS
VL: DIQMTQSPSSLSASVGDRVTITCRASQSVSSYLAWYQQKPGKAPKLLIYDASNRATGVPSRFSGSGSGTDFTLTISSLQPEDFATYYCQQRSNWPWTFGQGTKVEIKR
notes: human IgG1 effector-function-minimized/kappa
TF-1 NF-κB reporter cell bioassay IC50 (recombinant human TL1A [1]): 29.5 nM | TF-1 NF-κB reporter cell bioassay, Bioactivity relative to TL1A-0002 (recombinant human TL1A [1]): 0.8 fold | Whole blood IFNγ assay IC50 (recombinant human TL1A [1]): 0.923 nM | Whole blood IFNγ assay, Bioactivity relative to TL1A-0002 (recombinant human TL1A [1]): 1.1 fold | Bioactivity relative to TL1A-0002 (recombinant human TL1A [2]): 1.1 fold | IC50 (recombinant human TL1A [2]): 5.6 nM

B2: TL1A-0274 (antibody, human IgG1, kappa, V domains shown)
VH: QVQLVQSGAEVKKPGASVKVSCKASGYDFSYYGISWVRQAPGQGLEWMGWISTYNTGTHYAPSLQGRVTMTTDTSTSTAYMELRSLRSDDTAVYYCARESYYGSGAFRGGMDVWGQGTTVTVSS
VL: DIQMTQSPSSLSASVGDRVTITCRASQSVSSYLAWYQQKPGKAPKLLIYDASNRATGVPSRFSGSGSGTDFTLTISSLQPEDFATYYCQQRSNWPWTFGQGTKVEIKR
notes: as for B1
TF-1 NF-κB reporter cell bioassay IC50 (recombinant human TL1A [1]): 19.1 nM | TF-1 NF-κB reporter cell bioassay, Bioactivity relative to TL1A-0002 (recombinant human TL1A [1]): 0.6 fold | Bioactivity relative to TL1A-0002 (recombinant human TL1A [2]): 2 fold | IC50 (recombinant human TL1A [2]): 10.1 nM

B3: TL1A-0285 (antibody, human IgG1, kappa, V domains shown)
VH: QVQLVQSGAEVKKPGASVKVSCKASGYDFTYYGVSWVRQAPGQGLEWMGWISTYNDNTHYAPSLQGRVTMTTDTSTSTAYMELRSLRSDDTAVYYCARESYYGSGAHRGGMDVWGQGTTVTVSS
VL: DIQMTQSPSSLSASVGDRVTITCRASQSVSSYLAWYQQKPGKAPKLLIYDASNRATGVPSRFSGSGSGTDFTLTISSLQPEDFATYYCQQRSNWPWTFGQGTKVEIKR
notes: as for B1
Whole blood IFNγ assay IC50 (recombinant human TL1A [1]): 0.955 nM | Whole blood IFNγ assay, Bioactivity relative to TL1A-0002 (recombinant human TL1A [1]): 1.2 fold | Bioactivity relative to TL1A-0002 (recombinant human TL1A [2]): 1.7 fold | IC50 (recombinant human TL1A [2]): 8.6 nM

B4: TL1A-0263 (antibody, human IgG1, kappa, V domains shown)
VH: QVQLVQSGAEVKKPGASVKVSCKASGYDYTYYGISWVRQAPGQGLEWMGWISTYNTGTHYAQKLQGRVTMTTDTSTSTAYMELRSLRSDDTAVYYCARESYYGSGAHRGGMDVWGQGTTVTVSS
VL: DIQMTQSPSSLSASVGDRVTITCRASQSVSSYLAWYQQKPGKAPKLLIYDASNRATGVPSRFSGSGSGTDFTLTISSLQPEDFATYYCQQRSNWPWTFGQGTKVEIKR
notes: as for B1
TF-1 NF-κB reporter cell bioassay IC50 (recombinant human TL1A [1]): 40.4 nM | TF-1 NF-κB reporter cell bioassay, Bioactivity relative to TL1A-0002 (recombinant human TL1A [1]): 1.2 fold | Whole blood IFNγ assay IC50 (recombinant human TL1A [1]): 0.932 nM | Whole blood IFNγ assay, Bioactivity relative to TL1A-0002 (recombinant human TL1A [1]): 1.1 fold | Bioactivity relative to TL1A-0002 (recombinant human TL1A [2]): 1.2 fold | IC50 (recombinant human TL1A [2]): 6.2 nM

B5: TL1A-0264 (antibody, human IgG1, kappa, V domains shown)
VH: QVQLVQSGAEVKKPGASVKVSCKASGYDYTYYGISWVRQAPGQGLEWMGWISTYNTVTHYAPSLQGRVTMTTDTSTSTAYMELRSLRSDDTAVYYCARESYYGSGAFRGGMDVWGQGTTVTVSS
VL: DIQMTQSPSSLSASVGDRVTITCRASQSVSSYLAWYQQKPGKAPKLLIYDASNRATGVPSRFSGSGSGTDFTLTISSLQPEDFATYYCQQRSNWPWTFGQGTKVEIKR
notes: as for B1
TF-1 NF-κB reporter cell bioassay IC50 (recombinant human TL1A [1]): 30 nM | TF-1 NF-κB reporter cell bioassay, Bioactivity relative to TL1A-0002 (recombinant human TL1A [1]): 0.9 fold | Whole blood IFNγ assay IC50 (recombinant human TL1A [1]): 1.06 nM | Whole blood IFNγ assay, Bioactivity relative to TL1A-0002 (recombinant human TL1A [1]): 1.3 fold | Bioactivity relative to TL1A-0002 (recombinant human TL1A [2]): 3.1 fold | IC50 (recombinant human TL1A [2]): 15.8 nM

B6: TL1A-0275 (antibody, human IgG1, kappa, V domains shown)
VH: QVQLVQSGAEVKKPGASVKVSCKASGYDFSYYGISWVRQAPGQGLEWMGWISTYNTGTHYAPSLQGRVTMTTDTSTSTAYMELRSLRSDDTAVYYCARESYYGSGAHRGGMDVWGQGTTVTVSS
VL: DIQMTQSPSSLSASVGDRVTITCRASQSVSSYLAWYQQKPGKAPKLLIYDASNRATGVPSRFSGSGSGTDFTLTISSLQPEDFATYYCQQRSNWPWTFGQGTKVEIKR
notes: as for B1
TF-1 NF-κB reporter cell bioassay IC50 (recombinant human TL1A [1]): 24.7 nM | TF-1 NF-κB reporter cell bioassay, Bioactivity relative to TL1A-0002 (recombinant human TL1A [1]): 0.7 fold | Bioactivity relative to TL1A-0002 (recombinant human TL1A [2]): 1.8 fold | IC50 (recombinant human TL1A [2]): 9 nM

B7: TL1A-0287 (antibody, human IgG1, kappa, V domains shown)
VH: QVQLVQSGAEVKKPGASVKVSCKASGYDFTYYGVSWVRQAPGQGLEWMGWISTYNDNTHYAQKLQGRVTMTTDTSTSTAYMELRSLRSDDTAVYYCARESYYGSGAHRGGMDVWGQGTTVTVSS
VL: DIQMTQSPSSLSASVGDRVTITCRASQSVSSYLAWYQQKPGKAPKLLIYDASNRATGVPSRFSGSGSGTDFTLTISSLQPEDFATYYCQQRSNWPWTFGQGTKVEIKR
notes: as for B1
Whole blood IFNγ assay IC50 (recombinant human TL1A [1]): 0.993 nM | Whole blood IFNγ assay, Bioactivity relative to TL1A-0002 (recombinant human TL1A [1]): 1.2 fold | Bioactivity relative to TL1A-0002 (recombinant human TL1A [2]): 2 fold | IC50 (recombinant human TL1A [2]): 10.1 nM

B8: TL1A-0280 (antibody, human IgG1, kappa, V domains shown)
VH: QVQLVQSGAEVKKPGASVKVSCKASGYDFSYYGISWVRQAPGQGLEWMGWISTYNTNTHYAPSLQGRVTMTTDTSTSTAYMELRSLRSDDTAVYYCARESYYGSGAFRGGMDVWGQGTTVTVSS
VL: DIQMTQSPSSLSASVGDRVTITCRASQSVSSYLAWYQQKPGKAPKLLIYDASNRATGVPSRFSGSGSGTDFTLTISSLQPEDFATYYCQQRSNWPWTFGQGTKVEIKR
notes: as for B1
Whole blood IFNγ assay IC50 (recombinant human TL1A [1]): 0.914 nM | Whole blood IFNγ assay, Bioactivity relative to TL1A-0002 (recombinant human TL1A [1]): 1.1 fold | Bioactivity relative to TL1A-0002 (recombinant human TL1A [2]): 1.6 fold | IC50 (recombinant human TL1A [2]): 8.2 nM

B9: TL1A-0262 (antibody, human IgG1, kappa, V domains shown)
VH: QVQLVQSGAEVKKPGASVKVSCKASGYDYTYYGISWVRQAPGQGLEWMGWISTYNTGTHYAQKLQGRVTMTTDTSTSTAYMELRSLRSDDTAVYYCARESYYGSGAFRGGMDVWGQGTTVTVSS
VL: DIQMTQSPSSLSASVGDRVTITCRASQSVSSYLAWYQQKPGKAPKLLIYDASNRATGVPSRFSGSGSGTDFTLTISSLQPEDFATYYCQQRSNWPWTFGQGTKVEIKR
notes: as for B1
TF-1 NF-κB reporter cell bioassay IC50 (recombinant human TL1A [1]): 43.9 nM | TF-1 NF-κB reporter cell bioassay, Bioactivity relative to TL1A-0002 (recombinant human TL1A [1]): 1.3 fold | Whole blood IFNγ assay IC50 (recombinant human TL1A [1]): 1.03 nM | Whole blood IFNγ assay, Bioactivity relative to TL1A-0002 (recombinant human TL1A [1]): 1.2 fold | Bioactivity relative to TL1A-0002 (recombinant human TL1A [2]): 1.4 fold | IC50 (recombinant human TL1A [2]): 7.3 nM

B10: TL1A-0265 (antibody, human IgG1, kappa, V domains shown)
VH: QVQLVQSGAEVKKPGASVKVSCKASGYDYTYYGISWVRQAPGQGLEWMGWISTYNTVTHYAPSLQGRVTMTTDTSTSTAYMELRSLRSDDTAVYYCARESYYGSGAHRGGMDVWGQGTTVTVSS
VL: DIQMTQSPSSLSASVGDRVTITCRASQSVSSYLAWYQQKPGKAPKLLIYDASNRATGVPSRFSGSGSGTDFTLTISSLQPEDFATYYCQQRSNWPWTFGQGTKVEIKR
notes: as for B1
TF-1 NF-κB reporter cell bioassay IC50 (recombinant human TL1A [1]): 45.1 nM | TF-1 NF-κB reporter cell bioassay, Bioactivity relative to TL1A-0002 (recombinant human TL1A [1]): 1.3 fold | Whole blood IFNγ assay IC50 (recombinant human TL1A [1]): 1.01 nM | Whole blood IFNγ assay, Bioactivity relative to TL1A-0002 (recombinant human TL1A [1]): 1.2 fold | Bioactivity relative to TL1A-0002 (recombinant human TL1A [2]): 1.7 fold | IC50 (recombinant human TL1A [2]): 8.7 nM

B11: TL1A-0278 (antibody, human IgG1, kappa, V domains shown)
VH: QVQLVQSGAEVKKPGASVKVSCKASGYDFSYYGISWVRQAPGQGLEWMGWISTYNTVTHYAPSLQGRVTMTTDTSTSTAYMELRSLRSDDTAVYYCARESYYGSGAFRGGMDVWGQGTTVTVSS
VL: DIQMTQSPSSLSASVGDRVTITCRASQSVSSYLAWYQQKPGKAPKLLIYDASNRATGVPSRFSGSGSGTDFTLTISSLQPEDFATYYCQQRSNWPWTFGQGTKVEIKR
notes: as for B1
Whole blood IFNγ assay IC50 (recombinant human TL1A [1]): 0.82 nM | Whole blood IFNγ assay, Bioactivity relative to TL1A-0002 (recombinant human TL1A [1]): 1 fold | Bioactivity relative to TL1A-0002 (recombinant human TL1A [2]): 1.8 fold | IC50 (recombinant human TL1A [2]): 9.1 nM

B12: TL1A-0267 (antibody, human IgG1, kappa, V domains shown)
VH: QVQLVQSGAEVKKPGASVKVSCKASGYDYTYYGISWVRQAPGQGLEWMGWISTYNTNTHYAPSLQGRVTMTTDTSTSTAYMELRSLRSDDTAVYYCARESYYGSGAHRGGMDVWGQGTTVTVSS
VL: DIQMTQSPSSLSASVGDRVTITCRASQSVSSYLAWYQQKPGKAPKLLIYDASNRATGVPSRFSGSGSGTDFTLTISSLQPEDFATYYCQQRSNWPWTFGQGTKVEIKR
notes: as for B1
TF-1 NF-κB reporter cell bioassay IC50 (recombinant human TL1A [1]): 42.2 nM | TF-1 NF-κB reporter cell bioassay, Bioactivity relative to TL1A-0002 (recombinant human TL1A [1]): 1.2 fold | Whole blood IFNγ assay IC50 (recombinant human TL1A [1]): 0.94 nM | Whole blood IFNγ assay, Bioactivity relative to TL1A-0002 (recombinant human TL1A [1]): 1.1 fold | Bioactivity relative to TL1A-0002 (recombinant human TL1A [2]): 1.3 fold | IC50 (recombinant human TL1A [2]): 6.8 nM

B13: TL1A-0288 (antibody, human IgG1, kappa, V domains shown)
VH: QVQLVQSGAEVKKPGASVKVSCKASGYDFTYYGVSWVRQAPGQGLEWMGWISTYNTGTHYAPSLQGRVTMTTDTSTSTAYMELRSLRSDDTAVYYCARESYYGSGAFRGGMDVWGQGTTVTVSS
VL: DIQMTQSPSSLSASVGDRVTITCRASQSVSSYLAWYQQKPGKAPKLLIYDASNRATGVPSRFSGSGSGTDFTLTISSLQPEDFATYYCQQRSNWPWTFGQGTKVEIKR
notes: human IgG1 effector-function-minimized/kappa; 96 used
TF-1 NF-κB reporter cell bioassay IC50 (recombinant human TL1A [1]): 96 nM | TF-1 NF-κB reporter cell bioassay, Bioactivity relative to TL1A-0002 (recombinant human TL1A [1]): 2.8 fold | Bioactivity relative to TL1A-0002 (recombinant human TL1A [2]): 1.6 fold | IC50 (recombinant human TL1A [2]): 8 nM
